One block for each binder: values may come before it. Positions of bridges follow the written chain, without caps; N, C: chain ends. Non-standard residues stand in square brackets, D forms with d. R8 = C=CCCCCCC[C@@](C)(N)C(=O)O; S5 = C=CCCC[C@](C)(N)C(=O)O
Tests used:
Assay in all cases: Ki table, method not stated
[1] = target: BCL-XL (UniProt Q07817 1-209)
[2] = target: T1, MCL-1 (UniProt Q07820 172-327, limits assumed)
T1 construct: also called Myeloid cell leukemia 1

[3] = target: BCL-2 (UniProt P10415 1-217, limits assumed)
Chain of BCL-2 (P10415 1-217 limits assumed): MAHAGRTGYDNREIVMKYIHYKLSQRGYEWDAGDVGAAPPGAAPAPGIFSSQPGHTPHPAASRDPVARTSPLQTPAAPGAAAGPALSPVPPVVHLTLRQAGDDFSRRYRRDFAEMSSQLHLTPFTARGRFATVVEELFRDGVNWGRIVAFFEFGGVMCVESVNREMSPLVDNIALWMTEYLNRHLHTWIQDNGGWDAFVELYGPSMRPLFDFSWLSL

Chain of BCL-XL (Q07817 1-209): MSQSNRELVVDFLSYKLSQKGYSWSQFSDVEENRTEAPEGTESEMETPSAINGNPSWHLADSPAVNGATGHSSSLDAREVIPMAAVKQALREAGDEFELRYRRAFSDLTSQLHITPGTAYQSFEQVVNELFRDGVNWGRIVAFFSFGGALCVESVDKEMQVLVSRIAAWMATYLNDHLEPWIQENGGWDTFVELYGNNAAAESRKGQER
T1 sequence (Q07820 172-327 limits assumed): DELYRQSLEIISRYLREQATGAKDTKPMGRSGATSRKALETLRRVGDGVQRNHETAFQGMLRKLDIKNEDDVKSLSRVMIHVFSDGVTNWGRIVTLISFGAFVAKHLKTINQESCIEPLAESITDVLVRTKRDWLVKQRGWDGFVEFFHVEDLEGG

- Ki [1]: 72 nM
- Ki [2]: 2.2 nM
- Ki [3]: 118 nM
B1: SEQ ID NO: 1716 (peptide)
peptide: Ac-EWIAAALR[R8]IGDAFN[S5]YYA-NH2
modifications: staple 9-16
SMILES: CC[C@H](C)[C@H](NC(=O)[C@H](Cc1c[nH]c2ccccc12)NC(=O)[C@H](CCC(=O)O)NC(C)=O)C(=O)N[C@@H](C)C(=O)N[C@@H](C)C(=O)N[C@@H](C)C(=O)N[C@@H](CC(C)C)C(=O)N[C@@H](CCCNC(=N)N)C(=O)N[C@]1(C)CCCCCCC=CCCC[C@@](C)(C(=O)N[C@@H](Cc2ccc(O)cc2)C(=O)N[C@@H](Cc2ccc(O)cc2)C(=O)N[C@@H](C)C(N)=O)NC(=O)[C@H](CC(N)=O)NC(=O)[C@H](Cc2ccccc2)NC(=O)[C@H](C)NC(=O)[C@H](CC(=O)O)NC(=O)CNC(=O)[C@H]([C@@H](C)CC)NC1=O

- Ki [1]: 36.3 nM
- Ki [2]: 3 nM
- Ki [3]: 41.1 nM
B2: SEQ ID NO: 1725 (peptide)
peptide: Ac-IDIAAALR[R8]IGDAFN[S5]YYA-NH2
modifications: staple 9-16
SMILES: CC[C@H](C)[C@H](NC(C)=O)C(=O)N[C@@H](CC(=O)O)C(=O)N[C@H](C(=O)N[C@@H](C)C(=O)N[C@@H](C)C(=O)N[C@@H](C)C(=O)N[C@@H](CC(C)C)C(=O)N[C@@H](CCCNC(=N)N)C(=O)N[C@]1(C)CCCCCCC=CCCC[C@@](C)(C(=O)N[C@@H](Cc2ccc(O)cc2)C(=O)N[C@@H](Cc2ccc(O)cc2)C(=O)N[C@@H](C)C(N)=O)NC(=O)[C@H](CC(N)=O)NC(=O)[C@H](Cc2ccccc2)NC(=O)[C@H](C)NC(=O)[C@H](CC(=O)O)NC(=O)CNC(=O)[C@H]([C@@H](C)CC)NC1=O)[C@@H](C)CC

- Ki [1]: 35.9 nM
- Ki [2]: 4.8 nM
- Ki [3]: 64.9 nM
B3: SEQ ID NO: 1721 (peptide)
peptide: Ac-QWIAAALR[R8]IGDAFN[S5]YYA-NH2
modifications: staple 9-16
SMILES: CC[C@H](C)[C@H](NC(=O)[C@H](Cc1c[nH]c2ccccc12)NC(=O)[C@H](CCC(N)=O)NC(C)=O)C(=O)N[C@@H](C)C(=O)N[C@@H](C)C(=O)N[C@@H](C)C(=O)N[C@@H](CC(C)C)C(=O)N[C@@H](CCCNC(=N)N)C(=O)N[C@]1(C)CCCCCCC=CCCC[C@@](C)(C(=O)N[C@@H](Cc2ccc(O)cc2)C(=O)N[C@@H](Cc2ccc(O)cc2)C(=O)N[C@@H](C)C(N)=O)NC(=O)[C@H](CC(N)=O)NC(=O)[C@H](Cc2ccccc2)NC(=O)[C@H](C)NC(=O)[C@H](CC(=O)O)NC(=O)CNC(=O)[C@H]([C@@H](C)CC)NC1=O

- Ki [1]: 25.2 nM
- Ki [2]: 3.6 nM
- Ki [3]: 52 nM
B4: SEQ ID NO: 1719 (peptide)
peptide: Ac-HWIAAALR[R8]IGDAFN[S5]YYA-NH2
modifications: staple 9-16
SMILES: CC[C@H](C)[C@H](NC(=O)[C@H](Cc1c[nH]c2ccccc12)NC(=O)[C@H](Cc1c[nH]cn1)NC(C)=O)C(=O)N[C@@H](C)C(=O)N[C@@H](C)C(=O)N[C@@H](C)C(=O)N[C@@H](CC(C)C)C(=O)N[C@@H](CCCNC(=N)N)C(=O)N[C@]1(C)CCCCCCC=CCCC[C@@](C)(C(=O)N[C@@H](Cc2ccc(O)cc2)C(=O)N[C@@H](Cc2ccc(O)cc2)C(=O)N[C@@H](C)C(N)=O)NC(=O)[C@H](CC(N)=O)NC(=O)[C@H](Cc2ccccc2)NC(=O)[C@H](C)NC(=O)[C@H](CC(=O)O)NC(=O)CNC(=O)[C@H]([C@@H](C)CC)NC1=O

- Ki [1]: 27.2 nM
- Ki [2]: 3.9 nM
- Ki [3]: 49.7 nM
B5: SEQ ID NO: 1718 (peptide)
peptide: Ac-KWIAAALR[R8]IGDAFN[S5]YYA-NH2
modifications: staple 9-16
SMILES: CC[C@H](C)[C@H](NC(=O)[C@H](Cc1c[nH]c2ccccc12)NC(=O)[C@H](CCCCN)NC(C)=O)C(=O)N[C@@H](C)C(=O)N[C@@H](C)C(=O)N[C@@H](C)C(=O)N[C@@H](CC(C)C)C(=O)N[C@@H](CCCNC(=N)N)C(=O)N[C@]1(C)CCCCCCC=CCCC[C@@](C)(C(=O)N[C@@H](Cc2ccc(O)cc2)C(=O)N[C@@H](Cc2ccc(O)cc2)C(=O)N[C@@H](C)C(N)=O)NC(=O)[C@H](CC(N)=O)NC(=O)[C@H](Cc2ccccc2)NC(=O)[C@H](C)NC(=O)[C@H](CC(=O)O)NC(=O)CNC(=O)[C@H]([C@@H](C)CC)NC1=O

- Ki [1]: 32.8 nM
- Ki [2]: 4.5 nM
- Ki [3]: 47.8 nM
B6: SEQ ID NO: 1717 (peptide)
peptide: Ac-RWIAAALR[R8]IGDAFN[S5]YYA-NH2
modifications: staple 9-16
SMILES: CC[C@H](C)[C@H](NC(=O)[C@H](Cc1c[nH]c2ccccc12)NC(=O)[C@H](CCCNC(=N)N)NC(C)=O)C(=O)N[C@@H](C)C(=O)N[C@@H](C)C(=O)N[C@@H](C)C(=O)N[C@@H](CC(C)C)C(=O)N[C@@H](CCCNC(=N)N)C(=O)N[C@]1(C)CCCCCCC=CCCC[C@@](C)(C(=O)N[C@@H](Cc2ccc(O)cc2)C(=O)N[C@@H](Cc2ccc(O)cc2)C(=O)N[C@@H](C)C(N)=O)NC(=O)[C@H](CC(N)=O)NC(=O)[C@H](Cc2ccccc2)NC(=O)[C@H](C)NC(=O)[C@H](CC(=O)O)NC(=O)CNC(=O)[C@H]([C@@H](C)CC)NC1=O

- Ki [1]: 33.9 nM
- Ki [2]: 6.2 nM
- Ki [3]: 76.7 nM
B7: SEQ ID NO: 1724 (peptide)
peptide: Ac-FWIAAALR[R8]IGDAFN[S5]YYA-NH2
modifications: staple 9-16
SMILES: CC[C@H](C)[C@H](NC(=O)[C@H](Cc1c[nH]c2ccccc12)NC(=O)[C@H](Cc1ccccc1)NC(C)=O)C(=O)N[C@@H](C)C(=O)N[C@@H](C)C(=O)N[C@@H](C)C(=O)N[C@@H](CC(C)C)C(=O)N[C@@H](CCCNC(=N)N)C(=O)N[C@]1(C)CCCCCCC=CCCC[C@@](C)(C(=O)N[C@@H](Cc2ccc(O)cc2)C(=O)N[C@@H](Cc2ccc(O)cc2)C(=O)N[C@@H](C)C(N)=O)NC(=O)[C@H](CC(N)=O)NC(=O)[C@H](Cc2ccccc2)NC(=O)[C@H](C)NC(=O)[C@H](CC(=O)O)NC(=O)CNC(=O)[C@H]([C@@H](C)CC)NC1=O

- Ki [1]: 33.4 nM
- Ki [2]: 3.9 nM
- Ki [3]: 53.2 nM
B8: SEQ ID NO: 1720 (peptide)
peptide: Ac-SWIAAALR[R8]IGDAFN[S5]YYA-NH2
modifications: staple 9-16
SMILES: CC[C@H](C)[C@H](NC(=O)[C@H](Cc1c[nH]c2ccccc12)NC(=O)[C@H](CO)NC(C)=O)C(=O)N[C@@H](C)C(=O)N[C@@H](C)C(=O)N[C@@H](C)C(=O)N[C@@H](CC(C)C)C(=O)N[C@@H](CCCNC(=N)N)C(=O)N[C@]1(C)CCCCCCC=CCCC[C@@](C)(C(=O)N[C@@H](Cc2ccc(O)cc2)C(=O)N[C@@H](Cc2ccc(O)cc2)C(=O)N[C@@H](C)C(N)=O)NC(=O)[C@H](CC(N)=O)NC(=O)[C@H](Cc2ccccc2)NC(=O)[C@H](C)NC(=O)[C@H](CC(=O)O)NC(=O)CNC(=O)[C@H]([C@@H](C)CC)NC1=O

- Ki [1]: 32.6 nM
- Ki [2]: 3.8 nM
- Ki [3]: 63.9 nM
B9: SEQ ID NO: 1722 (peptide)
peptide: Ac-AWIAAALR[R8]IGDAFN[S5]YYA-NH2
modifications: staple 9-16
SMILES: CC[C@H](C)[C@H](NC(=O)[C@H](Cc1c[nH]c2ccccc12)NC(=O)[C@H](C)NC(C)=O)C(=O)N[C@@H](C)C(=O)N[C@@H](C)C(=O)N[C@@H](C)C(=O)N[C@@H](CC(C)C)C(=O)N[C@@H](CCCNC(=N)N)C(=O)N[C@]1(C)CCCCCCC=CCCC[C@@](C)(C(=O)N[C@@H](Cc2ccc(O)cc2)C(=O)N[C@@H](Cc2ccc(O)cc2)C(=O)N[C@@H](C)C(N)=O)NC(=O)[C@H](CC(N)=O)NC(=O)[C@H](Cc2ccccc2)NC(=O)[C@H](C)NC(=O)[C@H](CC(=O)O)NC(=O)CNC(=O)[C@H]([C@@H](C)CC)NC1=O
